B1: ZNF649 (parent)
chain: LTEHKRIHTGKKPHVCSLCGKAFY

Variants of: B1
Experiment: protein stability index of a GFP-peptide fusion (GPS, HEK-293T) (PSI 1-6); higher = more stable
Details: c terminus: a fixed tail appended
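Note: lentivirally expressed fusions sorted by FACS into six bins by GFP to DsRed ratio, PSI derived from sequencing read proportions per bin multiplied by bin number.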

Variant	protein stability index
LTEHKRIHTGKKPHVCSLCGKAFI	1.81
LTEHKRIHTGKKPHVCSLCGKAFR	2.42
LTEHKRIHTGKKPHVCSLCGKAFQ	3.04
LTEHKRIHTGKKPHVCSLCGKAFG	3.35
LTEMKRIHTGKKPHVCSLCGKAFY	2.47
LTEIKRIHTGKKPHVCSLCGKAFY	2.19
LTECKRIHTGKKPHVCSLCGKAFY	2.78
LTEAKRIHTGKKPHVCSLCGKAFY	2.22
LTEKKRIHTGKKPHVCSLCGKAFY	2.28
LTEWKRIHTGKKPHVCSLCGKAFY	2.78
LTEGKRIHTGKKPHVCSLCGKAFY	2.4
LTEQKRIHTGKKPHVCSLCGKAFY	3.31
LTEYKRIHTGKKPHVCSLCGKAFY	2.36
LTEEKRIHTGKKPHVCSLCGKAFY	3.02
LTENKRIHTGKKPHVCSLCGKAFY	2.84
LTEFKRIHTGKKPHVCSLCGKAFY	2.33
LTFHKRIHTGKKPHVCSLCGKAFY	2.31
LTMHKRIHTGKKPHVCSLCGKAFY	1.89
LTLHKRIHTGKKPHVCSLCGKAFY	1.15
LTDHKRIHTGKKPHVCSLCGKAFY	2.71
LTRHKRIHTGKKPHVCSLCGKAFY	1.86
LTPHKRIHTGKKPHVCSLCGKAFY	2.45
LTWHKRIHTGKKPHVCSLCGKAFY	1.71
LTIHKRIHTGKKPHVCSLCGKAFY	1.96

Variant	protein stability index
LTEHKRIHTGKKPHVCSLCQKAFY	3.04
LTEHKRIHTGKKPHVCSLCDKAFY	2.79
LTEHKRIHTGKKPHVCSLCKKAFY	1.24
LTEHKRIHTGKKPHVCSLCYKAFY	2.9
LTEHKRIHTGKKPHVCSLCNKAFY	3.49
LTEHKRIHTGKKPHVCSLCAKAFY	3.75
LTEHKSIHTGKKPHVCSLCGKAFY	2.25
LTEHKDIHTGKKPHVCSLCGKAFY	2.93
LTEHKHIHTGKKPHVCSLCGKAFY	3.63
LTEHKNIHTGKKPHVCSLCGKAFY	2.58
LTEHKFIHTGKKPHVCSLCGKAFY	2.33
LTEHKQIHTGKKPHVCSLCGKAFY	4.11
LTEHKWIHTGKKPHVCSLCGKAFY	2.75
LTEHKYIHTGKKPHVCSLCGKAFY	2.5
LTEHKRIHTGKKEHVCSLCGKAFY	2.96
LTEHKRIHTGKKTHVCSLCGKAFY	3.55
LTEHKRIHTGKKLHVCSLCGKAFY	2.32
LTEHKRIHTGKKKHVCSLCGKAFY	2.03
LTEHKRIHTGKKNHVCSLCGKAFY	2.15
LTEHKRIHTGKKSHVCSLCGKAFY	2.33
LTEHKRIHTGKKFHVCSLCGKAFY	2.23
LTEHKRIHTGKKQHVCSLCGKAFY	2.26
LTEHKRIHTGKKIHVCSLCGKAFY	2.84
LTEHKRIHTGKKRHVCSLCGKAFY	3.48

Variant	protein stability index
LTEHKRIHTGKKPHMCSLCGKAFY	2.98
LTEHKRIHTGKKPHHCSLCGKAFY	2.34
LTEHKRIHTGKKPHQCSLCGKAFY	2.35
LTEHKRIHTGKKPHLCSLCGKAFY	1.89
LTEHKRIHTGKKPHACSLCGKAFY	1.54
LTEHKRIHTGKKPHICSLCGKAFY	2.69
QTEHKRIHTGKKPHVCSLCGKAFY	3.02
GTEHKRIHTGKKPHVCSLCGKAFY	3.19
CTEHKRIHTGKKPHVCSLCGKAFY	3.22
WTEHKRIHTGKKPHVCSLCGKAFY	2.17
NTEHKRIHTGKKPHVCSLCGKAFY	2.81
TTEHKRIHTGKKPHVCSLCGKAFY	2.58
KTEHKRIHTGKKPHVCSLCGKAFY	3.22
FTEHKRIHTGKKPHVCSLCGKAFY	2.18
PTEHKRIHTGKKPHVCSLCGKAFY	3.05
LTEHKRIHTGKKPHVCSLCGKQFY	2.26
LTEHKRIHTGKKPHVCSLCGKVFY	2.85
LTEHKRIHTGKKPHVCSLCGKNFY	3.23
LTEHKRIHTGKKPHVCSLCGKCFY	2.55
LTEHKRIHTGKKPHVCSLCGKRFY	3.22
LTEHKRIHTGKKPHVCSLCGKAGY	2.67
LTEHKRIHTGKKPHVCSLCGKAWY	1.52
LTEHKRIHTGKKPHVCSLCGKAYY	2.47
LTEHKRIHTGKKPHVCSLCGKANY	2.4

Variant	protein stability index
LTEHKRIHTGKKPHVCSLCGKATY	2.32
LTEHKRIHTGKKPHVCSLCGKAPY	3.32
LTEHKRIHTGKKPHVCSLCGKARY	2.69
LTEHKRIHTGTKPHVCSLCGKAFY	2.62
LTEHKRIHTGLKPHVCSLCGKAFY	2.96
LTEHKRIHTGDKPHVCSLCGKAFY	3.21
LTEHKRIHTGAKPHVCSLCGKAFY	2.32
LTEHKRIHTGWKPHVCSLCGKAFY	3.42
LTEHKRIHTGGKPHVCSLCGKAFY	2.54
LTEHKRIHTGKGPHVCSLCGKAFY	3.6
LTEHKRIHTGKAPHVCSLCGKAFY	2.44
LTEHKRIHTGKWPHVCSLCGKAFY	2.27
LTEHKRIHTGKEPHVCSLCGKAFY	2.75
LTEHKRIHTGKDPHVCSLCGKAFY	3.14
LTEHKRIHTGKYPHVCSLCGKAFY	2.32
LTEHKRIHTGKFPHVCSLCGKAFY	2.32
LTEHKRIHTGKTPHVCSLCGKAFY	1.79
LTEHKRIHTGKHPHVCSLCGKAFY	1.97
LTEHKRIHTGKKPHVKSLCGKAFY	2.32
LTEHKRIHTGKKPHVVSLCGKAFY	2.2
LTEHKRIHTGKKPHVDSLCGKAFY	3.15
LTEHKRIHTGKKPHVGSLCGKAFY	2.01
LTEHKRIHTGKKPHVFSLCGKAFY	1.48
LTEHKRIHTGKKPHVTSLCGKAFY	2.23

Variant	protein stability index
LTEHKRIHTGKKPHVASLCGKAFY	2.94
LTEHKRIHTGKKPHVRSLCGKAFY	2.4
LTEHKRITTGKKPHVCSLCGKAFY	2.58
LTEHKRIATGKKPHVCSLCGKAFY	2.86
LTEHKRILTGKKPHVCSLCGKAFY	2.29
LTEHKRIMTGKKPHVCSLCGKAFY	2.49
LTEHKRIITGKKPHVCSLCGKAFY	2.17
LTEHKRIETGKKPHVCSLCGKAFY	3.25
LTEHKRAHTGKKPHVCSLCGKAFY	2.52
LTEHKRPHTGKKPHVCSLCGKAFY	2.38
LTEHKRNHTGKKPHVCSLCGKAFY	2.85
LTEHKRHHTGKKPHVCSLCGKAFY	2.16
LTEHKRWHTGKKPHVCSLCGKAFY	2.5
LTEHKRKHTGKKPHVCSLCGKAFY	1.98
LTEHKREHTGKKPHVCSLCGKAFY	2.71
LTEHKRTHTGKKPHVCSLCGKAFY	2.71
LTEHKRGHTGKKPHVCSLCGKAFY	2.78
LTEHKRMHTGKKPHVCSLCGKAFY	2.4
LTEHKRIHTGKKPPVCSLCGKAFY	3.18
LTEHKRIHTGKKPLVCSLCGKAFY	2.71
LTEHKRIHTGKKPRVCSLCGKAFY	2.2
LTEHKRIHTGKKPYVCSLCGKAFY	2.63
LTEHKRIHTGKKPGVCSLCGKAFY	2.22
LTEHKRIHTGKKPAVCSLCGKAFY	3.54

Variant	protein stability index
LTEHKRIHTGKKPNVCSLCGKAFY	1.97
LTEHKRIHTGKKPSVCSLCGKAFY	2.25
LTEHKRIHTLKKPHVCSLCGKAFY	2.27
LTEHKRIHTMKKPHVCSLCGKAFY	3.35
LTEHKRIHTSKKPHVCSLCGKAFY	2.19
LTEHKRIHTKKKPHVCSLCGKAFY	2.96
LTEHKRIHTAKKPHVCSLCGKAFY	2.78
LTEHKRIHTTKKPHVCSLCGKAFY	2.83
LTEHKRIHTNKKPHVCSLCGKAFY	1.98
LTEHKRIHTWKKPHVCSLCGKAFY	2.97
LTEHKRIHTFKKPHVCSLCGKAFY	3.73
LTEHKRIHTDKKPHVCSLCGKAFY	2.63
LTEHKRIHTQKKPHVCSLCGKAFY	2.28
LTEHKRIHTHKKPHVCSLCGKAFY	2.16
LTEHRRIHTGKKPHVCSLCGKAFY	2.63
LTEHLRIHTGKKPHVCSLCGKAFY	2.23
LTEHFRIHTGKKPHVCSLCGKAFY	2.25
LTEHTRIHTGKKPHVCSLCGKAFY	2.88
LTEHSRIHTGKKPHVCSLCGKAFY	2.3
LTEHVRIHTGKKPHVCSLCGKAFY	2.48
LTEHIRIHTGKKPHVCSLCGKAFY	3
LTEHKRIHAGKKPHVCSLCGKAFY	2.04
LTEHKRIHFGKKPHVCSLCGKAFY	2.8
LTEHKRIHYGKKPHVCSLCGKAFY	2.3

Variant	protein stability index
LTEHKRIHRGKKPHVCSLCGKAFY	2.45
LTEHKRIHKGKKPHVCSLCGKAFY	2.35
LTEHKRIHHGKKPHVCSLCGKAFY	3.04
LTEHKRIHSGKKPHVCSLCGKAFY	3.36
LTEHKRIHCGKKPHVCSLCGKAFY	2.32
LTEHKRIHTGKKPHVCSECGKAFY	3.18
LTEHKRIHTGKKPHVCSWCGKAFY	1.7
LTEHKRIHTGKKPHVCSTCGKAFY	2.35
LTEHKRIHTGKKPHVCSYCGKAFY	2.2
LTEHKRIHTGKKPHVCSPCGKAFY	3.85
LTEHKRIHTGKKPHVCSKCGKAFY	2.66
LHEHKRIHTGKKPHVCSLCGKAFY	2.46
LYEHKRIHTGKKPHVCSLCGKAFY	2.31
LKEHKRIHTGKKPHVCSLCGKAFY	2.26
LLEHKRIHTGKKPHVCSLCGKAFY	2.09
LIEHKRIHTGKKPHVCSLCGKAFY	2.04
LTEHKRIHTGKKPHVCSLCGFAFY	1.73
LTEHKRIHTGKKPHVCSLCGQAFY	3.8
LTEHKRIHTGKKPHVCSLCGAAFY	2.03
LTEHKRIHTGKKPHVCSLCGHAFY	1.91
LTEHKRIHTGKKPHVCSLCGTAFY	2.78
LTEHKRIHTGKKPHVCSLCGCAFY	1.39
LTEHKRIHTGKKPHVCSLCGNAFY	3.08
LTEHKRIHTGKKPHVCSLCGWAFY	2.15

Variant	protein stability index
LTEHKRIHTGKKPHVCSLCGVAFY	3.11
LTEHKRIHTGKKPHVCSLCGGAFY	2.38
LTEHKRIHTGKKPHVCSLCGPAFY	2.55
LTEHKRIHTGKKPHVCKLCGKAFY	2.34
LTEHKRIHTGKKPHVCPLCGKAFY	2.97
LTEHKRIHTGKKPHVCGLCGKAFY	1.72
LTEHKRIHTGKKPHVCELCGKAFY	2.84
LTEHKRIHTGKKPHVCILCGKAFY	2.48
LTEHKRIHTGKKPHVCNLCGKAFY	2.58
LTEHKRIHTGKKPHVCVLCGKAFY	1.49
LTEHKRIHTGKKPHVCSLHGKAFY	3.06
LTEHKRIHTGKKPHVCSLDGKAFY	3.3
LTEHKRIHTGKKPHVCSLPGKAFY	2.38
LTEHKRIHTGKKPHVCSLVGKAFY	2.1
LTEHKRIHTGKKPHVCSLMGKAFY	2.46
LTEHKRIHTGKKPHVCSLKGKAFY	2.64
LTEHKRIHTGKKPHVCSLAGKAFY	2.65
LTEHKRIHTGKKPHVCSLQGKAFY	2.04
LTEHKRIHTGKKPHVCSLRGKAFY	3.01
LTEHKRIHTGKKPHVCSLTGKAFY	2.24
